Results on 16 molecules are retold here after patent publication US20150307569, “HETEROGENEOUS NUCLEAR RIBONUCLEOPROTEIN A2* (HNRNP A2*) AND NUCLEIC ACID ENCODING THE SAME” (Institute of Zoology, Chinese Academy of Sciences, published 2015).

In data set [1] the target is T1, hnRNP A2* (hnRNP A2 isoform lacking exons 7-9) (Rattus norvegicus). The experiment in a line: competition; very low or no binding. Particulars: tags: His6 (pET-28b, E. coli BL21(DE3)). On the procedure:
(§1) 80 nM oligonucleotides having 5′ ends labeled with [γ-³²P] ATP (³²P-labeled oligonucleotides) were incubated with 400 nM recombinant hnRNP A2* at 4° C. for 30 min in a binding buffer [10 mM Tris(hydroxymethyl)metyl aminomethane (Tris) (pH 8.0), 1 mM ethylenediaminetetraacetic acid (EDTA), and 150 mM KCl] and resolved on a 8% (wt/vol) native PAGE gel. The gel was then visualized by phosphoimaging using a Typhoon PhosphorImager.
(§2) The cDNA encoding hnRNP A2* was cloned and expressed in Escherichia coli, producing a recombinant protein with the expected molecular mass (FIG. 2A). The exons 7-9 coded the glycine-rich domain (GRD) and provided additional DNA/RNA binding sites in addition to two RNA recognition sites (RRM). […] This is in contrast to hnRNP which has a broad DNA-binding specificity with the consensus sequence N(A,C,T)(C,T)(A,G)G(C,G,T)(A,T)NNN. […] The binding specificity of hnRNP A2* was further verified by constructing 10 mutant variants of the MBS, each carrying a single mutation to cytosine at each nucleotide. All the mutations within the MBS abolished the bindings except the mutations of thymines in the vicinity of GGG (FIG. 2E).

The target in data set [2] is T1, hnRNP A2* (hnRNP A2 isoform lacking …). The experiment in a line: EMSA; per text. Particulars: tags: His6 (pET-28b, E. coli BL21(DE3)); label: 5' 32P. On the procedure: as §1, §2
(In EMSA bound probe runs differently from free probe, usually more slowly.)

For data set [3], the target named is 28-kDa telomeric DNA-binding protein (hnRNP A2*), rat liver nuclear matrix (Rattus norvegicus). The experiment in a line: Southwestern blot. Particulars: label: 5' 32P.
Data set [4] has as its target T1, hnRNP A2* (hnRNP A2 isoform lacking …). The experiment in a line: EMSA; 10 mM Tris pH 8.0, 1 mM EDTA, 150 mM KCl, 4 C; 400 nM protein, 80 nM DNA. Particulars: tags: His6 (pET-28b, E. coli BL21(DE3)); label: 5' 32P. As to the method:
as §1, §2

Data set [5] has the same target. The experiment in a line: EMSA; per text: all MBS mutations abolish except thymines near GGG. Particulars: tags: His6 (pET-28b, E. coli BL21(DE3)); label: 5' 32P. On the procedure: as §1, §2
Data set [6] shares this target. The experiment in a line: EMSA; minimal binding site. Particulars: tags: His6 (pET-28b, E. coli BL21(DE3)); label: 5' 32P. On the procedure:
as §1, §2

The target is the same in data set [7]. The experiment in a line: EMSA; G-quadruplex substrate complex; stimulates telomerase. Particulars: tags: His6 (pET-28b, E. coli BL21(DE3)); G4. As to the method: as §1
The target is the same in data set [8]. The experiment in a line: EMSA; 150 mM KCl, 4 C. To be noted: tags: His6 (pET-28b, E. coli BL21(DE3)); label: 5' 32P. As to the method:
as §1, §2

For data set [9] the target is unchanged. The experiment in a line: EMSA; thymine next to G-tract tolerated. To be noted: tags: His6 (pET-28b, E. coli BL21(DE3)); label: 5' 32P. As to the method:
as §1, §2

T1 sequence (chain, as listed by the source): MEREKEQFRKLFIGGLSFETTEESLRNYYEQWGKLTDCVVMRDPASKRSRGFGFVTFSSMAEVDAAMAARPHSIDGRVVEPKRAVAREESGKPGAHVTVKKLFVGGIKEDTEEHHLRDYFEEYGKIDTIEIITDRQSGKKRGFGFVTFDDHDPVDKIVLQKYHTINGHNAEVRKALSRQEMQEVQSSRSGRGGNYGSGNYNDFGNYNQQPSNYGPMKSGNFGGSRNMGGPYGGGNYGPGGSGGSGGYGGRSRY
Sequence of 28-kDa telomeric DNA-binding protein (hnRNP A2*), rat liver nuclear matrix (Rattus norvegicus) (chain, as listed by the source): as above

TAAGGGTAAGGGTAAGGG (ssDNA) [(TAAGGG)3]: in [1], the binding result is “no binding”. Still for that read-out and setting: next, TTGGGGTTGGGGTTGGGG (ssDNA) [(TTGGGG)3]: “no binding”. Consider TAGGGTTAGCGTTAG (ssDNA, [none]) [15-mer G10C], for which the binding result in data set [2] is reported as “no binding”. On to TTAGAGTTAGAGTTAGAG (ssDNA) [(TTAGAG)3], for which the binding result in data set [1] is “no binding”. On to TTAGGGTTAGGGTTAGGG (ssDNA) [(TTAGGG)3], for which the binding result in data set [3] and in data set [4] was “binds” in each case. Regarding TAGCGTTAGGGTTAG (ssDNA, [none]) [15-mer G4C], the binding result in data set [2] was “no binding”. Take TCGGGTTAGGGTTAG (ssDNA, [none]) [15-mer A2C]: the binding result in data set [5] was “no binding”.

Turning to TAGGGTTAGG (ssDNA) [MBS], the binding result in [6] was “binds”.

B1: double-stranded (TTAGGG)3 (dsDNA)
DNA 1: TTAGGGTTAGGGTTAGGG
DNA 2: CCCTAACCCTAACCCTAA
Regarding B1, in [1], the binding result is reported as “no binding”. Consider GGGCTAGGGCTAGGGCTAGGGAGTT (structured_DNA) [TSG4], for which, in data set [7], the binding result is recorded as “binds”. TACGGTTAGGGTTAG (ssDNA, [none]) [15-mer G3C]: the binding result in data set [2] is reported as “no binding”. The same measure, in the same setting: then TAGGGTTCGGGTTAG (ssDNA, [none]) [15-mer A8C], with “no binding”; and TAGGCTTAGGGTTAG (ssDNA, [none]) [15-mer G5C], with “no binding”; and TAGGGTTACGGTTAG (ssDNA, [none]) [15-mer G9C], with “no binding”. Turning to TAGGGTTAGGGTTAG (ssDNA) [MBS-containing 15-mer W], the binding result in [8] is recorded as “binds”.

Regarding TAGGGCTAGGGTTAG (ssDNA, [none]) [15-mer T6C], the binding result in data set [9] is “binds”.
